Laboratory results from PMC3285272 (Cell, 2012).

How the values were obtained:
Assay in all cases: pull-down
[1] = molecular target: T1, γζ-COP lacking the C-terminal appendage domain of γ-COP (γ-COP 1–617) (B. taurus, UniProt P53620 1-617; P35604 1-177)
T1 sequence (looked up) 1: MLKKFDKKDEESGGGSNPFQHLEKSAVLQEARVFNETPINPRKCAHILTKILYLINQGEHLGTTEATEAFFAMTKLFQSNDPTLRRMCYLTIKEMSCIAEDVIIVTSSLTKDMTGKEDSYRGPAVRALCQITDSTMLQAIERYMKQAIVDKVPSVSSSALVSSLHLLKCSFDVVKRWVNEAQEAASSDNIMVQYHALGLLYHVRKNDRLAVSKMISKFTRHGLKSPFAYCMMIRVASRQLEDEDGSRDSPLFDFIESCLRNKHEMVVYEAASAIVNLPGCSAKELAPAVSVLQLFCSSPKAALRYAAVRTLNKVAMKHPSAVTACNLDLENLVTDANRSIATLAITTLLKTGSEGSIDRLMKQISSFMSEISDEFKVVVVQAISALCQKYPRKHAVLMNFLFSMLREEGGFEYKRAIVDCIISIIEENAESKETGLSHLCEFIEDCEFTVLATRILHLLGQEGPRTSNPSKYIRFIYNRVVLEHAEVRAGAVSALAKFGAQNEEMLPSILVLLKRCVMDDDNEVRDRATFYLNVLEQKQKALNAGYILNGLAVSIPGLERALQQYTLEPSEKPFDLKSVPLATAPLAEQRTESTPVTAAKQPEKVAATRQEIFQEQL
T1 sequence (looked up) 2: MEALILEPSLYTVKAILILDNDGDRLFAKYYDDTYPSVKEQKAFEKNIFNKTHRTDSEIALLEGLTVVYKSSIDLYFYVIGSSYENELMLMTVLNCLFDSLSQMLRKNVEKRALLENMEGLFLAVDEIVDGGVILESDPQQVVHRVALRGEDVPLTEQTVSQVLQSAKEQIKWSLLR

[2] = molecular target: T2, γζ-COP core complex (bovine γ-COP 1–355 plus ζ-COP 1–153) (B. taurus, UniProt P53620 1-355; P35604 1-153)
T2 sequence (looked up) 1: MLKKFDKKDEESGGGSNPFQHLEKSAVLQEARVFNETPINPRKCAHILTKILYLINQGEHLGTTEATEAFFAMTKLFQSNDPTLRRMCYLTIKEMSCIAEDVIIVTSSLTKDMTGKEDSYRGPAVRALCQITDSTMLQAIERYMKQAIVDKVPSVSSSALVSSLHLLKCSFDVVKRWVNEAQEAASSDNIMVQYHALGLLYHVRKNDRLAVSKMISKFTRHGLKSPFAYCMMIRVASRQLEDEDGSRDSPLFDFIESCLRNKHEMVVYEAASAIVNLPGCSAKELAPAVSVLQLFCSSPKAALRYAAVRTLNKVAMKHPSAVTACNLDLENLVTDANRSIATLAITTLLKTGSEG
T2 sequence (looked up) 2: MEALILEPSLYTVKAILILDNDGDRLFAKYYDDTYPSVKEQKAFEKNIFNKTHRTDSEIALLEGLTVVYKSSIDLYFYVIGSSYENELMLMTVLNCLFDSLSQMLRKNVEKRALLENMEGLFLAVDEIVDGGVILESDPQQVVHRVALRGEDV

[3] = molecular target: full-length βδ/γζ-COP complex (R. norvegicus | B. taurus, UniProt P23514 1-953; P53619 1-511; P53620 1-874; P35604 1-177)

Measured: binding result

B1: S. cerevisiae Arf1 (residues 18–181) with a C-terminal GST tag (domain or fragment, UniProt P11076 18-181, looked up)
chain: MRILMVGLDGAGKTTVLYKLKLGEVITTIPTIGFNVETVQYKNISFTVWDVGGQDRIRSLWRHYYRNTEGVIFVVDSNDRSRIGEAREVMQRMLNEDELRNAAWLVFANKQDLPEAMSAAEITEKLGLHSIRNRPWFIQATCATSGEGLYEGLEWLSNSLKNST
binds: [1] | [2] | [3]
